# System: Escherichia coli TOP10
# Assay: shrunken log2 fold change of peptide-encoding DNA abundance (4.5 h post-induction vs induction); higher = less antimicrobial activity (less host growth inhibition)
# Details: time post-induction: 4.5 h; library: site-saturation at positions 5, 18, 19, 20
# 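Also: peptides expressed intracellularly from a pBAD plasmid library in pooled LB shake-flask culture, induced with 0.3% L-arabinose, DNA abundance read by NGS, three biological replicates, DESeq2 with apeglm shrinkage.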
row,Sequence,shrunken log2 fold change
1,RRIRERPPRLPRPRPRPTQGPRP,0.555
2,RRIRERPPRLPRPRPRPTQHPRP,0.239
3,RRIRERPPRLPRPRPRPTQIPRP,0.0737
4,RRIRERPPRLPRPRPRPTQMPRP,-0.155
5,RRIRERPPRLPRPRPRPTQNPRP,0.262
6,RRIRERPPRLPRPRPRPTQQPRP,0.0931
7,RRIRERPPRLPRPRPRPTRIPRP,0.17
8,RRIRERPPRLPRPRPRPTSCPRP,-0.178
9,RRIRERPPRLPRPRPRPTTEPRP,-0.0421
10,RRIRERPPRLPRPRPRPTVAPRP,0.075
11,RRIRERPPRLPRPRPRPTVFPRP,0.0505
12,RRIRERPPRLPRPRPRPTVTPRP,0.0913
13,RRIRERPPRLPRPRPRPTWIPRP,-0.268
14,RRIRERPPRLPRPRPRPTWLPRP,0.289
15,RRIRERPPRLPRPRPRPTWMPRP,0.0534
16,RRIRERPPRLPRPRPRPTYLPRP,-0.178
17,RRIRERPPRLPRPRPRPTYSPRP,-0.578
18,RRIRERPPRLPRPRPRPVCDPRP,0.078
19,RRIRERPPRLPRPRPRPVCWPRP,0.337
20,RRIRERPPRLPRPRPRPVDEPRP,-0.56
21,RRIRERPPRLPRPRPRPVEEPRP,-0.127
22,RRIRERPPRLPRPRPRPVEHPRP,-0.0102

row,Sequence,shrunken log2 fold change
1,RRIRERPPRLPRPRPRPVEPPRP,0.0248
2,RRIRERPPRLPRPRPRPVERPRP,-0.00844
3,RRIRERPPRLPRPRPRPVEYPRP,-0.0437
4,RRIRERPPRLPRPRPRPVFEPRP,-0.151
5,RRIRERPPRLPRPRPRPVKEPRP,-0.0153
6,RRIRERPPRLPRPRPRPVLKPRP,0.0458
7,RRIRERPPRLPRPRPRPVLVPRP,-0.0151
8,RRIRERPPRLPRPRPRPVMGPRP,-0.123
9,RRIRERPPRLPRPRPRPVNAPRP,-0.353
10,RRIRERPPRLPRPRPRPVPVPRP,0.0913
11,RRIRERPPRLPRPRPRPVQQPRP,-0.168
12,RRIRERPPRLPRPRPRPVQWPRP,0.149
13,RRIRERPPRLPRPRPRPVRWPRP,0.635
14,RRIRERPPRLPRPRPRPVRYPRP,-0.582
15,RRIRERPPRLPRPRPRPVSSPRP,-0.215
16,RRIRERPPRLPRPRPRPVTDPRP,-0.069
17,RRIRERPPRLPRPRPRPVTGPRP,-0.0257
18,RRIRERPPRLPRPRPRPVTLPRP,-0.289
19,RRIRERPPRLPRPRPRPVTVPRP,-0.0984
20,RRIRERPPRLPRPRPRPVVWPRP,0.33
21,RRIRERPPRLPRPRPRPVWGPRP,0.259
22,RRIRERPPRLPRPRPRPWAEPRP,0.0285

row,Sequence,shrunken log2 fold change
1,RRIRERPPRLPRPRPRPWAFPRP,-0.165
2,RRIRERPPRLPRPRPRPWCGPRP,-0.245
3,RRIRERPPRLPRPRPRPWFGPRP,0.0197
4,RRIRERPPRLPRPRPRPWFMPRP,-0.688
5,RRIRERPPRLPRPRPRPWGMPRP,0.115
6,RRIRERPPRLPRPRPRPWICPRP,-0.378
7,RRIRERPPRLPRPRPRPWIHPRP,0.105
8,RRIRERPPRLPRPRPRPWIMPRP,-0.277
9,RRIRERPPRLPRPRPRPWKFPRP,-0.301
10,RRIRERPPRLPRPRPRPWKNPRP,-0.0553
11,RRIRERPPRLPRPRPRPWLLPRP,-1.56
12,RRIRERPPRLPRPRPRPWMAPRP,-0.0227
13,RRIRERPPRLPRPRPRPWMSPRP,-0.0212
14,RRIRERPPRLPRPRPRPWNGPRP,0.208
15,RRIRERPPRLPRPRPRPWNMPRP,-0.0894
16,RRIRERPPRLPRPRPRPWPEPRP,-0.0215
17,RRIRERPPRLPRPRPRPWPSPRP,0.134
18,RRIRERPPRLPRPRPRPWSYPRP,0.0168
19,RRIRERPPRLPRPRPRPWTYPRP,-0.104
20,RRIRERPPRLPRPRPRPWYIPRP,-0.0599
21,RRIRERPPRLPRPRPRPWYWPRP,0.0516
22,RRIRERPPRLPRPRPRPYDTPRP,-0.00822

row,Sequence,shrunken log2 fold change
1,RRIRERPPRLPRPRPRPYDVPRP,-0.000921
2,RRIRERPPRLPRPRPRPYFCPRP,-0.765
3,RRIRERPPRLPRPRPRPYHSPRP,-0.133
4,RRIRERPPRLPRPRPRPYKIPRP,-0.266
5,RRIRERPPRLPRPRPRPYKQPRP,-0.049
6,RRIRERPPRLPRPRPRPYLIPRP,-0.626
7,RRIRERPPRLPRPRPRPYMGPRP,-1.01
8,RRIRERPPRLPRPRPRPYMPPRP,-0.429
9,RRIRERPPRLPRPRPRPYMVPRP,-0.832
10,RRIRERPPRLPRPRPRPYNRPRP,-0.112
11,RRIRERPPRLPRPRPRPYQSPRP,-0.0109
12,RRIRERPPRLPRPRPRPYRAPRP,0.0532
13,RRIRERPPRLPRPRPRPYSDPRP,-0.308
14,RRIRERPPRLPRPRPRPYTIPRP,-0.267
15,RRIRERPPRLPRPRPRPYVRPRP,-0.00133
16,RRIRERPPRLPRPRPRPYVYPRP,-0.296
17,RRIRERPPRLPRPRPRPYWVPRP,-0.338
18,RRIRERPPRLPRPRPRPYWWPRP,-0.142
19,RRIRERPPRLPRPRPRPYYAPRP,-0.72
20,RRIRFRPPRLPRPRPRPAAIPRP,1.19
21,RRIRFRPPRLPRPRPRPACFPRP,0.0876
22,RRIRFRPPRLPRPRPRPACLPRP,-0.105

row,Sequence,shrunken log2 fold change
1,RRIRFRPPRLPRPRPRPADGPRP,0.183
2,RRIRFRPPRLPRPRPRPAEHPRP,0.26
3,RRIRFRPPRLPRPRPRPAGQPRP,0.171
4,RRIRFRPPRLPRPRPRPANNPRP,-0.917
5,RRIRFRPPRLPRPRPRPANVPRP,-0.246
6,RRIRFRPPRLPRPRPRPARFPRP,0.1
7,RRIRFRPPRLPRPRPRPARNPRP,0.0979
8,RRIRFRPPRLPRPRPRPASYPRP,-0.218
9,RRIRFRPPRLPRPRPRPATRPRP,0.193
10,RRIRFRPPRLPRPRPRPATYPRP,-0.191
11,RRIRFRPPRLPRPRPRPAVPPRP,0.0613
12,RRIRFRPPRLPRPRPRPAWHPRP,0.259
13,RRIRFRPPRLPRPRPRPAYGPRP,-0.41
14,RRIRFRPPRLPRPRPRPAYVPRP,0.678
15,RRIRFRPPRLPRPRPRPCAAPRP,0.35
16,RRIRFRPPRLPRPRPRPCANPRP,0.133
17,RRIRFRPPRLPRPRPRPCCDPRP,-0.239
18,RRIRFRPPRLPRPRPRPCCEPRP,-0.414
19,RRIRFRPPRLPRPRPRPCCIPRP,-0.313
20,RRIRFRPPRLPRPRPRPCCRPRP,-0.332
21,RRIRFRPPRLPRPRPRPCETPRP,-0.00947

# Reference: the supplement of paper PMC9112550, “Optimization of the antimicrobial peptide Bac7 by deep mutational scanning” (BMC Biology, 2022)
